Target: T1, NR-LU-10 antigen (Homo sapiens, UniProt P16422)
T1 construct: Positive NR-LU-10 tissue reactivity indicates NR-LU-10 antigen expression by such tissues; from tissue; host or cells: carcinoma and normal tissue specimens
T1 sequence (P16422 24-314): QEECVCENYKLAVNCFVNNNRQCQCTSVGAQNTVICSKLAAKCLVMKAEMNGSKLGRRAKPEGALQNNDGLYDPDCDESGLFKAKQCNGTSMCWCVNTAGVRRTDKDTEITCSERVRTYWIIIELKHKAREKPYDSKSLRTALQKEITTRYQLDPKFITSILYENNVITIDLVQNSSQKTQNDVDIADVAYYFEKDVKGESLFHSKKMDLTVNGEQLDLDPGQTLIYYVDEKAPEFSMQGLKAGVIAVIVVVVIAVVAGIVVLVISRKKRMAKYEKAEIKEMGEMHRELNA
Experiment: NR-LU-10 reactivity with normal tissues (Table B)
Assay type: binding
Excerpt: Radioimmunoassays, immunoprecipitation and Fluorescence-Activated Cell Sorter (FACS) analysis were used to obtain reactivity profiles of NR-LU-10. The NR-LU-10 target antigen was present on either fixed cultured cells or in detergent extracts of various types of cancer cells. For example, the NR-LU-10 antigen is found in small cell lung, non-small cell lung, colon, breast, renal, ovarian, pancreatic, and other carcinoma tissues. Tumor reactivity of the NR-LU-10 antibody is set forth in Table A, while NR-LU-10 reactivity with normal tissues is set forth in Table B. The values in Table B are obtained as described below. Positive NR-LU-10 tissue reactivity indicates NR-LU-10 antigen expression by such tissues.
The tissue specimens were scored in accordance with three reactivity parameters: (1) the intensity of the reaction; (2) the uniformity of the reaction within the cell type; and (3) the percentage of cells reactive with the antibody. These three values are combined into a single weighted comparative value between 0 and 500, with 500 being the most intense reactivity. This comparative value facilitates comparison of different tissues. Table B includes a summary reactivity value, the number of tissue samples examined and the number of samples that reacted positively with NR-LU-10.

[1] = Salivary Gland: Acinar Epithelium
[2] = Salivary Gland: Duct Epithelium
[3] = Spleen: Lymphoid Follicle-Central
[4] = Spleen: Lymphoid Follicle-Peripheral
[5] = Spleen: Trabecular Smooth Muscle
[6] = Stomach: Muscularis Mucosa/Externa
[7] = Stromal Tissue: Arteriolar Smooth Muscle
[8] = Stromal Tissue: Fibrous Connective Tissue
[9] = Stromal Tissue: Mast Cells/Eosinophils
[10] = Tonsil: Lymphoid Follicle-Central
[11] = Tonsil: Lymphoid Follicle-Peripheral
[12] = Urinary Bladder: Mucosal Epithelium
[13] = Vagina/Cervix: Epithelial Glands
[14] = Vagina/Cervix: Squamous Epithelium

B1: NR-LU-10: 150 kilodalton IgG2b monoclonal antibody recognizing an approximately 40 kilodalton glycoprotein antigen expressed on most carcinomas (antibody, V domains shown)
VH: EVQLQQSGAELVKPGASVRLSCTASGFNIKDTYMHWVIERPEQGLEWIGRIDPANGNTKCDPKFQGKATITADTSSNTAYLQLSSLTSEDTAVYYCSREVLTGTWSLDYWGQGTSVTVSS
VL: DIQMIQSPSSMFASLGDRVSLSCRASQGIRGNLDWYQQKPGGTIKLLIYSTSNLNSGVPSRFSGSGSGSDYSLTISSLDSEDFADYYCLQRNAYPYTFGGGTKLEIK
93: Summary Reactivity (Testis: Sertoli Cells)
167: Summary Reactivity (Thymus: Lymphoid Medulla)
147: Summary Reactivity (Thymus: Hassal's Epithelium)
33: Summary Reactivity (Skin: Basal Layer)
400: Summary Reactivity (Ovary: Granulosa) | Summary Reactivity (Prostate: Glandular Epithelium)
0/2: # Pos/Exam (Nerve: Neurolemma) | # Pos/Exam (Nerve: Neuron) | # Pos/Exam (Nerve: Perineurium) | # Pos/Exam (Pituitary: Neurohypophysis) | # Pos/Exam (Rectum: Lymph Node) | # Pos/Exam (Rectum: Mucosal Epithelium) | # Pos/Exam (Spinal Cord: Axons, Myelinated) | # Pos/Exam (Spinal Cord: Microglial) | # Pos/Exam (Spinal Cord: Neurons) | # Pos/Exam (Vagina/Cervix: Smooth Muscle)
270: Summary Reactivity (Ovary: Eipthelium)
1/1: # Pos/Exam (Ovary: Eipthelium) | # Pos/Exam (Oviduct: Epithelium) | # Pos/Exam (Skin: Follicle) | # Pos/Exam (Tonsil: Mucus Gland) | # Pos/Exam [13] | # Pos/Exam [14]
10: Summary Reactivity (Skin: Epithelium)
280: Summary Reactivity (Skin: Apocrine Glands)
3/3: # Pos/Exam (Pancreas: Acinar Cell) | # Pos/Exam (Pancreas: Duct Epthelium) | # Pos/Exam (Pancreas: Islet Cell) | # Pos/Exam (Prostate: Glandular Epithelium) | # Pos/Exam [1] | # Pos/Exam [2] | # Pos/Exam (Skin: Apocrine Glands) | # Pos/Exam (Skin: Basal Layer) | # Pos/Exam (Stomach: Chief Cells) | # Pos/Exam (Stomach: Mucosal Epithelium) | # Pos/Exam (Stomach: Parietal Cells) | # Pos/Exam (Testis: Sertoli Cells) | # Pos/Exam (Thymus: Hassal's Epithelium) | # Pos/Exam (Thymus: Hassal's Keratin) | # Pos/Exam (Thymus: Lymphoid Medulla) | # Pos/Exam (Thyroid: Follicular Epithelium) | # Pos/Exam [12] | # Pos/Exam (Uterus: Endometrial Epithelium) | # Pos/Exam (Uterus: Endometrial Glands)
0/1: # Pos/Exam (Peritoneum: Mesothelium) | # Pos/Exam (Rectum: Muscularis Externa) | # Pos/Exam (Urinary Bladder: Serosa)
2/2: # Pos/Exam (Pituitary: Adenohypophysis)
433: Summary Reactivity [12]
290: Summary Reactivity (Stomach: Chief Cells) | Summary Reactivity (Stomach: Parietal Cells)
0: Summary Reactivity (Nerve: Endoneurium) | Summary Reactivity (Nerve: Neurolemma) | Summary Reactivity (Nerve: Neuron) | Summary Reactivity (Nerve: Perineurium) | Summary Reactivity (Ovary: Corpus Luteum) | Summary Reactivity (Ovary: Serosa) | Summary Reactivity (Ovary: Theca) | Summary Reactivity (Oviduct: Smooth Muscle) | Summary Reactivity (Peritoneum: Mesothelium) | Summary Reactivity (Pituitary: Neurohypophysis) | Summary Reactivity (Placenta: Trophoblasts) | Summary Reactivity (Prostate: Concretions) | Summary Reactivity (Prostate: Smooth Muscle) | Summary Reactivity (Rectum: Lymph Node) | Summary Reactivity (Rectum: Mucosal Epithelium) | Summary Reactivity (Rectum: Muscularis Externa) | Summary Reactivity (Rectum: Muscularis Mucosa) | Summary Reactivity (Rectum: Nerve Ganglia) | Summary Reactivity (Skin: Stratum Corneum) | Summary Reactivity (Spinal Cord: Axons, Myelinated) | Summary Reactivity (Spinal Cord: Microglial) | Summary Reactivity (Spinal Cord: Neurons) | Summary Reactivity [3] | Summary Reactivity [4] | Summary Reactivity [5] | Summary Reactivity [6] | Summary Reactivity (Stomach: Smooth Muscle) | Summary Reactivity (Stromal Tissue: Adipose) | Summary Reactivity [7] | Summary Reactivity (Stromal Tissue: Endothelium) | Summary Reactivity [8] | Summary Reactivity (Stromal Tissue: Macrophages) | Summary Reactivity [9] | Summary Reactivity (Testis: Interstitial Cells) | Summary Reactivity (Thymus: Lymphoid Cortex) | Summary Reactivity (Thyroid: C-Cells) | Summary Reactivity (Thyroid: Colloid) | Summary Reactivity [10] | Summary Reactivity [11] | Summary Reactivity (Tonsil: Striated Muscle) | Summary Reactivity (Umbilical Cord: Epithelium) | Summary Reactivity (Urinary Bladder: Serosa) | Summary Reactivity (Urinary Bladder: Smooth Muscle) | Summary Reactivity (Uterus: Smooth Muscle) | Summary Reactivity (Vagina/Cervix: Smooth Muscle)
200: Summary Reactivity [14]
0/3: # Pos/Exam (Ovary: Corpus Luteum) | # Pos/Exam (Ovary: Serosa) | # Pos/Exam (Ovary: Theca) | # Pos/Exam (Oviduct: Smooth Muscle) | # Pos/Exam (Placenta: Trophoblasts) | # Pos/Exam (Prostate: Concretions) | # Pos/Exam (Prostate: Smooth Muscle) | # Pos/Exam (Rectum: Muscularis Mucosa) | # Pos/Exam (Rectum: Nerve Ganglia) | # Pos/Exam (Skin: Stratum Corneum) | # Pos/Exam [3] | # Pos/Exam [4] | # Pos/Exam [5] | # Pos/Exam [6] | # Pos/Exam (Stomach: Smooth Muscle) | # Pos/Exam (Testis: Interstitial Cells) | # Pos/Exam (Thymus: Lymphoid Cortex) | # Pos/Exam (Thyroid: C-Cells) | # Pos/Exam (Thyroid: Colloid) | # Pos/Exam [10] | # Pos/Exam [11] | # Pos/Exam (Tonsil: Striated Muscle) | # Pos/Exam (Umbilical Cord: Epithelium) | # Pos/Exam (Urinary Bladder: Smooth Muscle) | # Pos/Exam (Uterus: Smooth Muscle)
1/3: # Pos/Exam (Ovary: Granulosa) | # Pos/Exam (Skin: Epithelium) | # Pos/Exam (Tonsil: Epithelium)
190: Summary Reactivity (Skin: Follicle)
0/117: # Pos/Exam (Stromal Tissue: Macrophages)
500: Summary Reactivity (Oviduct: Epithelium) | Summary Reactivity (Pancreas: Acinar Cell) | Summary Reactivity (Pancreas: Duct Epthelium) | Summary Reactivity (Pancreas: Islet Cell) | Summary Reactivity (Pituitary: Adenohypophysis) | Summary Reactivity [1] | Summary Reactivity [2] | Summary Reactivity (Thyroid: Follicular Epithelium) | Summary Reactivity (Tonsil: Epithelium) | Summary Reactivity (Uterus: Endometrial Epithelium) | Summary Reactivity (Uterus: Endometrial Glands) | Summary Reactivity [13]
0/120: # Pos/Exam [7] | # Pos/Exam (Stromal Tissue: Endothelium) | # Pos/Exam [8]
300: Summary Reactivity (Tonsil: Mucus Gland)
0/86: # Pos/Exam [9]
0/63: # Pos/Exam (Stromal Tissue: Adipose)
367: Summary Reactivity (Stomach: Mucosal Epithelium)
333: Summary Reactivity (Thymus: Hassal's Keratin)

From patent US6416738B1, “Pretargeting methods and compounds” (NeoRx Corporation, priority 1973, dated 2002)
